Values of other authors as cited in article PMC9686918.

Molecular target: myeloperoxidase (Homo sapiens) (UniProt P05164)
Sequence (P05164 165-273): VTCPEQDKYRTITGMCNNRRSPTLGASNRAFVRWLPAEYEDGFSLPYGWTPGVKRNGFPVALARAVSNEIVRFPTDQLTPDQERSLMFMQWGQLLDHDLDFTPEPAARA

- Kd: 20 µM
Substance: human serum albumin (from UniProt P02768)
